Values of other authors, collected in PMC2933916.

Target: S100B (UniProt P04271)

For S100B (from UniProt P04271), the Kd is listed as less than 0.5 nM.
